Among the data in the supplement of paper PMC12338614 are STK11 functional score values, retold here.

The labels stand for the following.
B1: library; numbered along this chain (parent)
chain: MEVVDPQQLGMFTEGELMSVGMDTFIHRIDSTEVIYQPRRKRAKLIGKYLMGDLLGEGSYGKVKEVLDSETLCRRAVKILKKKKLRRIPNGEANVKKEIQLLRRLRHKNVIQLVDVLYNEEKQKMYMVMEYCVCGMQEMLDSVPEKRFPVCQAHGYFCQLIDGLEYLHSQGIVHKDIKPGNLLLTTGGTLKISDLGVAEALHPFAADDTCRTSQGSPAFQPPEIANGLDTFSGFKVDIWSAGVTLYNITTGLYPFEGDNIYKLFENIGKGSYAIPGDCGPPLSDLLKGMLEYEPAKRFSIRQIRQHSWFRKKHPPAEAPVPIPPSPDTKDRWRSMTVVPYLEDLHGADEDEDLFDIEDDIIYTQDFTVPGQVPEEEASHNGQRRGLPKAVCMNGTEAAQLSTKSRAEGRAPNPARKACSASSKIRRLSACKQQ

± gives the uncertainty stated by the source.

This data set covers variants of B1. Briefly: STK11 functional score (HeLa growth suppression), rescaled enrichment; synonymous median = 1, nonsense median = 0 (normalised score). To be noted: with HeLa; variant type: missense. The method, boiled down:
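HeLa cells carrying an AAVS1 landing pad received codon-optimised STK11 libraries made by codon randomisation (POPCode), integrated by Bxb1, with three regions each transfected three times. Integrants that were BFP-negative and mCherry-positive were sorted by FACS 4–5 days after electroporation and then grown for about two weeks. Tiled amplicons from gDNA were sequenced on NextSeq at ~2 million reads per tile. The functional score is a wild-type-corrected log ratio of post- to pre-selection counts, rescaled to the synonymous and nonsense medians, merged across codons and replicate transfections, and given a bootstrapped error.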
On to MEVVDPQQLGMFTEGELMSVGMDTFIHRIDSTEVIYQPRRKRAKLIGKYLMGDLLGEGSYGKVKEVLDSETLCRRAVKILKKKKLRRIPNGEANVKKEIQLLRRLRHKNVIQLVDVLYNEEKQKMYMVMEYCVCGMQEMLDSVPEKRFPVCQAHGYFCQLIDGLEYLHSQGIVHKDIKPGNLLLTTGGTLKISDLGVAEALHPFAADDTCRTSQGSPAFQPPEMANGLDTFSGFKVDIWSAGVTLYNITTGLYPFEGDNIYKLFENIGKGSYAIPGDCGPPLSDLLKGMLEYEPAKRFSIRQIRQHSWFRKKHPPAEAPVPIPPSPDTKDRWRSMTVVPYLEDLHGADEDEDLFDIEDDIIYTQDFTVPGQVPEEEASHNGQRRGLPKAVCMNGTEAAQLSTKSRAEGRAPNPARKACSASSKIRRLSACKQQ [I224M], for which the STK11 functional score came out at 1.11 ± 0.48.
The value for MEVVDPQQLGMFTEGELMSVGMDTFIHRIDSTEVIYQPRRKRAKLIGKYLMGDLLGEGSYGKVKEVLDSETLCRRAVKILKKKKLRRIPNGEANVKKEIQLLRRLRHKNVIQLVDVLYNEEKQKMYMVMEYCVCGMQEMLDSVPEKRFPVCQAHGYFCQLIDGLEYLHSQGIVHKDIKPGNLLLTTGGTLKISDLGVAEALHPFAADDTCRTSQGSPAFQPPESANGLDTFSGFKVDIWSAGVTLYNITTGLYPFEGDNIYKLFENIGKGSYAIPGDCGPPLSDLLKGMLEYEPAKRFSIRQIRQHSWFRKKHPPAEAPVPIPPSPDTKDRWRSMTVVPYLEDLHGADEDEDLFDIEDDIIYTQDFTVPGQVPEEEASHNGQRRGLPKAVCMNGTEAAQLSTKSRAEGRAPNPARKACSASSKIRRLSACKQQ [I224S] was 1.31 ± 0.28; that for MEVVDPQQLGMFTEGELMSVGMDTFIHRIDSTEVIYQPRRKRAKLIGKYLMGDLLGEGSYGKVKEVLDSETLCRRAVKILKKKKLRRIPNGEANVKKEIQLLRRLRHKNVIQLVDVLYNEEKQKMYMVMEYCVCGMQEMLDSVPEKRFPVCQAHGYFCQLIDGLEYLHSQGIVHKDIKPGNLLLTTGGTLKISDLGVAEALHPFAADDTCRTSQGSPAFQPPEVANGLDTFSGFKVDIWSAGVTLYNITTGLYPFEGDNIYKLFENIGKGSYAIPGDCGPPLSDLLKGMLEYEPAKRFSIRQIRQHSWFRKKHPPAEAPVPIPPSPDTKDRWRSMTVVPYLEDLHGADEDEDLFDIEDDIIYTQDFTVPGQVPEEEASHNGQRRGLPKAVCMNGTEAAQLSTKSRAEGRAPNPARKACSASSKIRRLSACKQQ [I224V] was 0.835 ± 0.24; that for MEVVDPQQLGMFTEGELMSVGMDTFIHRIDSTEVIYQPRRKRAKLIGKYLMGDLLGEGSYGKVKEVLDSETLCRRAVKILKKKKLRRIPNGEANVKKEIQLLRRLRHKNVIQLVDVLYNEEKQKMYMVMEYCVCGMQEMLDSVPEKRFPVCQAHGYFCQLIDGLEYLHSQGIVHKDIKPGNLLLTTGGTLKISDLGVAEALHPFAADDTCRTSQGSPAFQPPELANGLDTFSGFKVDIWSAGVTLYNITTGLYPFEGDNIYKLFENIGKGSYAIPGDCGPPLSDLLKGMLEYEPAKRFSIRQIRQHSWFRKKHPPAEAPVPIPPSPDTKDRWRSMTVVPYLEDLHGADEDEDLFDIEDDIIYTQDFTVPGQVPEEEASHNGQRRGLPKAVCMNGTEAAQLSTKSRAEGRAPNPARKACSASSKIRRLSACKQQ [I224L] was 1.28 ± 0.19.
In the case of MEVVDPQQLGMFTEGELMSVGMDTFIHRIDSTEVIYQPRRKRAKLIGKYLMGDLLGEGSYGKVKEVLDSETLCRRAVKILKKKKLRRIPNGEANVKKEIQLLRRLRHKNVIQLVDVLYNEEKQKMYMVMEYCVCGMQEMLDSVPEKRFPVCQAHGYFCQLIDGLEYLHSQGIVHKDIKPGNLLLTTGGTLKISDLGVAEALHPFAADDTCRTSQGSPAFQPPEWANGLDTFSGFKVDIWSAGVTLYNITTGLYPFEGDNIYKLFENIGKGSYAIPGDCGPPLSDLLKGMLEYEPAKRFSIRQIRQHSWFRKKHPPAEAPVPIPPSPDTKDRWRSMTVVPYLEDLHGADEDEDLFDIEDDIIYTQDFTVPGQVPEEEASHNGQRRGLPKAVCMNGTEAAQLSTKSRAEGRAPNPARKACSASSKIRRLSACKQQ [I224W] it was 1.3 ± 0.41; in that of MEVVDPQQLGMFTEGELMSVGMDTFIHRIDSTEVIYQPRRKRAKLIGKYLMGDLLGEGSYGKVKEVLDSETLCRRAVKILKKKKLRRIPNGEANVKKEIQLLRRLRHKNVIQLVDVLYNEEKQKMYMVMEYCVCGMQEMLDSVPEKRFPVCQAHGYFCQLIDGLEYLHSQGIVHKDIKPGNLLLTTGGTLKISDLGVAEALHPFAADDTCRTSQGSPAFQPPERANGLDTFSGFKVDIWSAGVTLYNITTGLYPFEGDNIYKLFENIGKGSYAIPGDCGPPLSDLLKGMLEYEPAKRFSIRQIRQHSWFRKKHPPAEAPVPIPPSPDTKDRWRSMTVVPYLEDLHGADEDEDLFDIEDDIIYTQDFTVPGQVPEEEASHNGQRRGLPKAVCMNGTEAAQLSTKSRAEGRAPNPARKACSASSKIRRLSACKQQ [I224R], 1.04 ± 0.17.
Consider MEVVDPQQLGMFTEGELMSVGMDTFIHRIDSTEVIYQPRRKRAKLIGKYLMGDLLGEGSYGKVKEVLDSETLCRRAVKILKKKKLRRIPNGEANVKKEIQLLRRLRHKNVIQLVDVLYNEEKQKMYMVMEYCVCGMQEMLDSVPEKRFPVCQAHGYFCQLIDGLEYLHSQGIVHKDIKPGNLLLTTGGTLKISDLGVAEALHPFAADDTCRTSQGSPAFQPPETANGLDTFSGFKVDIWSAGVTLYNITTGLYPFEGDNIYKLFENIGKGSYAIPGDCGPPLSDLLKGMLEYEPAKRFSIRQIRQHSWFRKKHPPAEAPVPIPPSPDTKDRWRSMTVVPYLEDLHGADEDEDLFDIEDDIIYTQDFTVPGQVPEEEASHNGQRRGLPKAVCMNGTEAAQLSTKSRAEGRAPNPARKACSASSKIRRLSACKQQ [I224T], for which the STK11 functional score amounted to 0.252 ± 0.4.
Take MEVVDPQQLGMFTEGELMSVGMDTFIHRIDSTEVIYQPRRKRAKLIGKYLMGDLLGEGSYGKVKEVLDSETLCRRAVKILKKKKLRRIPNGEANVKKEIQLLRRLRHKNVIQLVDVLYNEEKQKMYMVMEYCVCGMQEMLDSVPEKRFPVCQAHGYFCQLIDGLEYLHSQGIVHKDIKPGNLLLTTGGTLKISDLGVAEALHPFAADDTCRTSQGSPAFQPPEQANGLDTFSGFKVDIWSAGVTLYNITTGLYPFEGDNIYKLFENIGKGSYAIPGDCGPPLSDLLKGMLEYEPAKRFSIRQIRQHSWFRKKHPPAEAPVPIPPSPDTKDRWRSMTVVPYLEDLHGADEDEDLFDIEDDIIYTQDFTVPGQVPEEEASHNGQRRGLPKAVCMNGTEAAQLSTKSRAEGRAPNPARKACSASSKIRRLSACKQQ [I224Q]: the STK11 functional score is 0.698 ± 0.65.
With MEVVDPQQLGMFTEGELMSVGMDTFIHRIDSTEVIYQPRRKRAKLIGKYLMGDLLGEGSYGKVKEVLDSETLCRRAVKILKKKKLRRIPNGEANVKKEIQLLRRLRHKNVIQLVDVLYNEEKQKMYMVMEYCVCGMQEMLDSVPEKRFPVCQAHGYFCQLIDGLEYLHSQGIVHKDIKPGNLLLTTGGTLKISDLGVAEALHPFAADDTCRTSQGSPAFQPPENANGLDTFSGFKVDIWSAGVTLYNITTGLYPFEGDNIYKLFENIGKGSYAIPGDCGPPLSDLLKGMLEYEPAKRFSIRQIRQHSWFRKKHPPAEAPVPIPPSPDTKDRWRSMTVVPYLEDLHGADEDEDLFDIEDDIIYTQDFTVPGQVPEEEASHNGQRRGLPKAVCMNGTEAAQLSTKSRAEGRAPNPARKACSASSKIRRLSACKQQ [I224N], the STK11 functional score is 1.47 ± 0.42.
With MEVVDPQQLGMFTEGELMSVGMDTFIHRIDSTEVIYQPRRKRAKLIGKYLMGDLLGEGSYGKVKEVLDSETLCRRAVKILKKKKLRRIPNGEANVKKEIQLLRRLRHKNVIQLVDVLYNEEKQKMYMVMEYCVCGMQEMLDSVPEKRFPVCQAHGYFCQLIDGLEYLHSQGIVHKDIKPGNLLLTTGGTLKISDLGVAEALHPFAADDTCRTSQGSPAFQPPEPANGLDTFSGFKVDIWSAGVTLYNITTGLYPFEGDNIYKLFENIGKGSYAIPGDCGPPLSDLLKGMLEYEPAKRFSIRQIRQHSWFRKKHPPAEAPVPIPPSPDTKDRWRSMTVVPYLEDLHGADEDEDLFDIEDDIIYTQDFTVPGQVPEEEASHNGQRRGLPKAVCMNGTEAAQLSTKSRAEGRAPNPARKACSASSKIRRLSACKQQ [I224P], the STK11 functional score amounted to 0.889 ± 0.11.
In the case of MEVVDPQQLGMFTEGELMSVGMDTFIHRIDSTEVIYQPRRKRAKLIGKYLMGDLLGEGSYGKVKEVLDSETLCRRAVKILKKKKLRRIPNGEANVKKEIQLLRRLRHKNVIQLVDVLYNEEKQKMYMVMEYCVCGMQEMLDSVPEKRFPVCQAHGYFCQLIDGLEYLHSQGIVHKDIKPGNLLLTTGGTLKISDLGVAEALHPFAADDTCRTSQGSPAFQPPEIGNGLDTFSGFKVDIWSAGVTLYNITTGLYPFEGDNIYKLFENIGKGSYAIPGDCGPPLSDLLKGMLEYEPAKRFSIRQIRQHSWFRKKHPPAEAPVPIPPSPDTKDRWRSMTVVPYLEDLHGADEDEDLFDIEDDIIYTQDFTVPGQVPEEEASHNGQRRGLPKAVCMNGTEAAQLSTKSRAEGRAPNPARKACSASSKIRRLSACKQQ [A225G] it was 1.05 ± 0.26; in that of MEVVDPQQLGMFTEGELMSVGMDTFIHRIDSTEVIYQPRRKRAKLIGKYLMGDLLGEGSYGKVKEVLDSETLCRRAVKILKKKKLRRIPNGEANVKKEIQLLRRLRHKNVIQLVDVLYNEEKQKMYMVMEYCVCGMQEMLDSVPEKRFPVCQAHGYFCQLIDGLEYLHSQGIVHKDIKPGNLLLTTGGTLKISDLGVAEALHPFAADDTCRTSQGSPAFQPPEIPNGLDTFSGFKVDIWSAGVTLYNITTGLYPFEGDNIYKLFENIGKGSYAIPGDCGPPLSDLLKGMLEYEPAKRFSIRQIRQHSWFRKKHPPAEAPVPIPPSPDTKDRWRSMTVVPYLEDLHGADEDEDLFDIEDDIIYTQDFTVPGQVPEEEASHNGQRRGLPKAVCMNGTEAAQLSTKSRAEGRAPNPARKACSASSKIRRLSACKQQ [A225P], 1.22 ± 0.62.
In the case of MEVVDPQQLGMFTEGELMSVGMDTFIHRIDSTEVIYQPRRKRAKLIGKYLMGDLLGEGSYGKVKEVLDSETLCRRAVKILKKKKLRRIPNGEANVKKEIQLLRRLRHKNVIQLVDVLYNEEKQKMYMVMEYCVCGMQEMLDSVPEKRFPVCQAHGYFCQLIDGLEYLHSQGIVHKDIKPGNLLLTTGGTLKISDLGVAEALHPFAADDTCRTSQGSPAFQPPEIINGLDTFSGFKVDIWSAGVTLYNITTGLYPFEGDNIYKLFENIGKGSYAIPGDCGPPLSDLLKGMLEYEPAKRFSIRQIRQHSWFRKKHPPAEAPVPIPPSPDTKDRWRSMTVVPYLEDLHGADEDEDLFDIEDDIIYTQDFTVPGQVPEEEASHNGQRRGLPKAVCMNGTEAAQLSTKSRAEGRAPNPARKACSASSKIRRLSACKQQ [A225I] it was 1.42 ± 0.13; in that of MEVVDPQQLGMFTEGELMSVGMDTFIHRIDSTEVIYQPRRKRAKLIGKYLMGDLLGEGSYGKVKEVLDSETLCRRAVKILKKKKLRRIPNGEANVKKEIQLLRRLRHKNVIQLVDVLYNEEKQKMYMVMEYCVCGMQEMLDSVPEKRFPVCQAHGYFCQLIDGLEYLHSQGIVHKDIKPGNLLLTTGGTLKISDLGVAEALHPFAADDTCRTSQGSPAFQPPEILNGLDTFSGFKVDIWSAGVTLYNITTGLYPFEGDNIYKLFENIGKGSYAIPGDCGPPLSDLLKGMLEYEPAKRFSIRQIRQHSWFRKKHPPAEAPVPIPPSPDTKDRWRSMTVVPYLEDLHGADEDEDLFDIEDDIIYTQDFTVPGQVPEEEASHNGQRRGLPKAVCMNGTEAAQLSTKSRAEGRAPNPARKACSASSKIRRLSACKQQ [A225L], 1.52 ± 0.2.
